assay: soluble on expression in E. coli; label from the status in PepcDB or PDB records

Sequence | soluble on expression in E. coli
MPSSVELSVQAGLEHFDAAQWDALAGPQPFVRHAFLRALHDTGCASPGTGWTPCFLALRRAGLLAGAVPLYAKSHSRGEYVFDYAWADAYARNGLPYYPKLLSAVPFTPVGGARLLAHTHADRLLLARGLIQLARQFEVSSLHVLFPSDDDLLALREAGYLIRAGVQFHWRNAGYAGFDDFLAAFSHDKRKKIRQDRKKVAAERVSFRWLRGADIDAAALDFFYQCYRHTYLAHGNPPYLNLEFFRQLHAEMPDALVLILAEQDGQPVAAALNLQADGVLYGRYWGARRYIPGLHFETCYLQSIEYCIAHGQASFEGGAQGEHKMARGLLPTPTWSAHWIADTRFAAAIDDFLGHETHAIDEYRDELATHSPFRKT | not soluble
MSLSHLVVFDLDGTLTRQRGGFELLHTLYGTTPEAETLMNRFEAGEITFTEWCQGAVDMWRANDITRSDITRATRALKPKAGAVDLLAHLQQTDIRFGILSAGVANLAARFEPYEPAFVRGNWLQFEDRRVSAIDIGVGPNEKGELLRKIRSKQNPVSITYIGDSHTDTEAFIEADTAVLFDPDERVPETAIDAADTIIESADIAEVQNCIPTEGHHHHHH | not soluble
MGSDKIHHHHHHVLKKALRQHFRQSCTEQDLHRWFDPLDITLADEKRLEVRFPHRFFAEWFSTQVQGRFESELNTFMGEGTTVEYTTGCCPVLSSSPLPPAAVSKKLSAPFGREYTFETFISNKRNFFPVASARELARQEEEIRYNPFVLCGPAGSGKTHLLRAIANELSKTVYKKHIFISTIDDLGTLFSNNGSGDPAQVRQQLSACHYLLLDDLHRLREQPQLQDELTVLFNSFYDRQKQMVFTCPGKLSELDFLETGLRSRLEWGLIVTMKPPDLEILVTFIQRQCKLHKLQLAKEHVFTLAQRFRDFRHLQGVLNRLTAYRDLVNRTLADTDFEQVLSHTEAGAGRPLTADRIIALCAGRFSLPPKDVTGDKRHQKVVLARQVAMYLCRELMGSSYPVLGRTFGGKDHSTAMYAVKKIKKMIDSDKTTRQLVTELKKQCLSGAE | not soluble
MGSDKIHHHHHHMHLDLLICSKPFIFNKVVDTKPFYQRTIMYKHTVSQHVFTFDSLTELMAKASPLRSGDQLAGIAAGSYQERIAAQMALADLPLTTFLQEPLIPYESDEVTRLIFDTHEHTAFTAIAHLTVGDFRNFLLSNNTHTSQLTALQKAITPEMAAAVSKIMNVQDLILVSSKCEIITRFRNTIGVKGCMSTRLQPNHPTDDLKAIMASVLDGLFYGSGDAVIGINPATDHISTQVQLLKLIDAVREQYAIPTQSCILSHITNTILAIEQGAPVDLVFQSIGGTEKTNSSFGINLSLLQEGYEAALSLGRGTIGNNVMYFETGQGSSLSANAHYGIDQQTLEARAYAVARAFNPLLVNTVVGFIGPEYLFDGKQIIRAGLEDHFCGKLMGLPMGCDICYTNHADADQDDMDALLTLLGVAGCNFIMGVPGSDDIMLNYQSTSFHDALYIRKLLNVKPAPEFEEWLLKMGIMNTQHEITVHRIYCG | not soluble
RTCRIHEISCGAHSTQCIPVSWRCDGENDCDSGEDEENCGN | soluble
MATLEDGTSEDRVANDEYKIWKKNTPFLYDLVMTHALEWPSLSVQWLPDVAKDNSDHTIHRLILGTHTSDEQNHLLISKICMPTDDAQFDASRYDTERSEYGGFGAVNGKVEPDIRINHEGEVNRARYMPQKSNIIATKSPHADVYIFDYLKHSAVPRDNTFNPLIRLKGHTKEGYGLSWNPNKEGLILSASDDQTVCHWDINANQNVAGELQAKDVFKGHESVVEDVAWHVLHDGVFGSVGDDKKLLIWDVRTSTPGHCIDAHSAEVNCLAFNPYSEFILATGSADKTVALWDLRNLRMKLHSFESHRDEIFQVQWSPHNETILASSGTDKRLHVWDLSKIGEDQSAEDAEDGPPELLFIHGGHTAKISDFSWNPNEPWVVCSVSEDNILQVWQMADNIYNEVDEETPADVVERQQ | not soluble
QVQLVASGGGSVQAGGSLRLSCAASGYTFSSYPMGWYRQAPGKECELSARIFSDGSANYADSVKGRFTISRDNAANTAYLQMDSLKPEDTAVYYCAAGPGSGKLVVAGRTCYGPNYWGQGTQVTVSS | soluble
VTAEEHVESEPLTKRDFEALARFRFGIRRYVRFSEDTVRDHGLTPQHYQLLLALKGFPGREWATMRELADRLQLRHHSVVELVDRAQKQGLVERAPHPSDARAVRVELTEHGQLILARLSAMHRDELLRLGPALELPIWDDPPQDR | not soluble
MTEVEKSRSGRIVKRKVFADFQQLDDDLKSITTEELRESASESKKLRLGPTRRSCRNIPTNYEELKAKTDAGIIPETVYYRASNNSMYIPSITADMLKNDGNDLTVQTRSDKYFKYNRVRQSTKIDYAEPEKVYDIIYAVRKRPILWDQRLICHRNSNLSRRAWDQLDLELGIDEEYPLARRKQIWKSKRDYFVSAVNAANLRKWIYADALEFYRPMINFRTTFCLRPTVAQPSQSVHDKLVLADKNIQCTPGDKKNVLTFLLKSLYDTGMSSPEMMAEHGLEILKIFKKNAESSNLKLN | not soluble
MVSVDPLATERWRSIRRLTDRDSAYKVPWFVPGPENFEALQNTKILVIGAGGLGCELLKNLALSGFRTIEVIDMDTIDVSNLNRQFLFRESDVGKSKAEVAAAFVQQRVVGCQVTAHNCRIEDKGQEFYRKFSIIICGLDSIPARRWINGMLCDLVLEMADGKPDENTIIPMIDGGTEGFKGNARVIYPKFTACIDCTLDLYPPQVNFPLCTIAHTPRLPEHCIEYIKVVVWPEEKPFEGVSLDADDPIHVEWVLERASLRAEKYNIRGVDRRLTSGVLKRIIPAVASTNAVIAASCALEALKLATNIAKPIDNYLNFTQIHGAYTSVVSMMKDDNCLTCSGGRLPFEVSPSSTLESLIIRLSERFHLKHPTLATSTRKLYCISSFMPQFEQESKENLHTSMKDLVSDGEEILVSDEALSRALTLRIQLI | not soluble
MYHHGFHYYSTNNSHSYSRTRNPPKSWNLGPHELGSSTDPENRAMQESIINSVSEQTLQSWIDFREEINKKNLLLRNKLKIPSEKIDDKYHTFPEKKQSDYADAEIYAGSDASQPSRNEYDRSKYVLNRKVRCAPTEIITDSSQSPGASPSSDQIFIDDSQPSTTKRRWVISEPDDNSDKHVSSSENHQQREKIISPTEKTLQKSTSSNSSPTLKLFVTVPSSSNQECILHKYGHCIAPQICPFAHDGVVRKLEKKTVTAPFWQRKLPNISLCPGYPTLKCWDHKCGKRHILYPSDNI | not soluble
MFTRQAGHFVEGSKAGRSRGRLCLSQALRVAVRGAFVSLWFAAGAGDRERNKGDKGAQTGAGLSQEAEDVDVSRARRVTDAPQGTLCGTGNRNSGSQSARAVGVAHLGEAFRVGVEQAISSCPEEVHGRHGLSMEIMWAQMDVALRSPGRGLLAGAGALCMTLAESSCPDYERGRRACLTLHRHPTPHCSTWGLPLRVAGSWLTVVTVEALGRWRMGVRRTGQVGPTMHPPPVSGASPLLLHHLLLLLLIIILTC | not soluble
MLRIDCGGQDTVTKIVAERLMMKTDGRLARMLHVLVHMGLLGGRETSERIAQMLNTNPVVVRRTLGALRESGIVVSEGGRGGGWKLIRSLDQITVLDVQRALVEGQMLPAPLSKDHPNCPVERASNAVLERAHCLAEAALRTAYSETTLAQIAETAVATK | not soluble
MSLEMEHINENTIRVLIGNEDLADRGITFLDLLGNHKDVENFFYSILEEVDVEDEFQGSEAVTFQVLPKNDGLELFISKNVAMDDLSSLEGLSEVNADVSELIRKQIEADKAAADELDEMEATDETNRNVIFELDNFEAMIQLSKEVFMQSVLTNLYTYNDRYYLQVLFLTDELEKTNVDNEIAQILEFAHKTTVTQDTLVEYGTCIMERSALELTRYYFNDEGHHHHHH | soluble
MLRFRCILSTSRSIMSGVKEFDYLVIGGGSGGIASARRAREFGVSVGLIESGRLGGTCVNVGCVPKKVMYNCSLHAEFIRDHADYGFDVTLNKFDWKVIKKSRDEYIKRLNGLYESGLKGSSVEYIRGRATFAEDGTVEVNGAKYRGKNTLIAVGGKPTIPNIKGAEHGIDSDGFFDLEDLPSRTVVVGAGYIAVEIAGVLANLGSDTHLLIRYDKVLRTFDKMLSDELTADMDEETNPLHLHKNTQVTEVIKGDDGLLTIKTTTGVIEKVQTLIWAIGRDPLTKELNLERVGVKTDKSGHIIVDEYQNTSAPGILSVGDDTGKFLLTPVAIAAGRRLSHRLFNGETDNKLTYENIATVVFSHPLIGTVGLTEAEAVEKYGKDEVTLYKSRFNPMLFAVTKHKEKAAMKLVCVGKDEKVVGVHVFGVGSDEMLQGFAVAVTMGATKKQFDQTVAIHPTSAEELVTMRGGVKPE | not soluble
MGSSHHHHHHSQDPMDYFNIKQNYYTGNFVQCLQEIEKFSKVTDNTLLFYKAKTLLALGQYQSQDPTSKLGKVLDLYVQFLDTKNIEELENLLKDKQNSPYELYLLATAQAILGDLDKSLETCVEGIDNDEAEGTTELLLLAIEVALLNNNVSTASTIFDNYTNAIEDTVSGDNEMILNLAESYIKFATNKETATSNFYYYEELSQTFPTWKTQLGLLNLHLQQRNIAEAQGIVELLLSDYYSVEQKENAVLYKPTFLANQITLALMQGLDTEDLTNQLVKLDHEHAFIKHHQEIDAKFDELVRKYDTSN | soluble
MAKKLSKKGDIQRDHFALISSFPLNQTPETKSEKLQKNLLLHKYYQGHRERLRRRYLKSKGNAIEDYEYLELLLFRTIPRANTKPIAKSLIAHFGSLADVLGADIHRLQEVQGCGPATALDLKIISDVAGRLARAQLFKRDIFSSWDQVLAYCKAVMAHETREQFRVLFLDKKNGLLADEVQQTGTIDHTPVYPREVISRALQLSASGLILVHNHPSGDATPSKADVTMTYRLKDAANALGITVHDHLIIARNNYTSFKELKFI | not soluble
MPNLSCGVDNCAYNQNDMCSLNSIKVNGSFANHSEATCCGSFVEKGGFTNAAVDMGPAEPATSVACEAEKCCYNKNCKCHAESIDISGDYAQHQDNTECSTFRQELEHHHHHH | soluble
MSLDDEPLLPDFEQLGYPRNLPTLVLGLRGMICEITHSKKNGWGIVKRPGVDKFFNILKNYYEIVIWSDESFPIPHEVLEKWNLPIIGILNKNHFSKINGKLFKNLSRLGRNLNRVILVDNESYSANIQYDNSIVLPIFKGDPYDNELNSIIDLLKAAAMQPGDIREYLKRFRCNDTNIGDEGHHHHHH | soluble
QLTPFQQEVSRGLKKSVCHKENMLIHAVTGAGKTEMIYETLASILNQGGAVALASPRIDVCIELYKRLSRDFSCPISLLYGESEAYERSPLVIATTHQLLKFYRAFDLLIIDEVDAFPFVDNKMLYYAVDHCLKSDGVKVFLTATS | not soluble
MRLKKIGEWLNASPEDQDKQNADLLQTLSKLTGKQLDANALQMLQNLLQAVESKNVSGTDQLLTETEKIFSEAKTALSANDSASDINGALKSDKEQSNQENEVSEPAKELIYIQMFISQLVEGNKLTDLGNGNEAHAIYQNGDQFLSALEKKGVSQQLIQDLKQQIFTKAESSSKLYSMTASELKSFQSLMDQMSMLPQKGTKEWSLAETQLKAFLLSKSSESSQDFGKSVLTPLSQSSSSKNASDVSGSIQPVDSKSGLQMLFSGYRGIGGVQTLDLQQMSSDIPNAETKTVADQVINAWKQMKYTPFGRSTGSFTIRLNPEHLGFVTIKLTNENGMFQSKIIASSQSAKELLEQHLPQLKQSLPNMAVQIDRFTLPVQSGDQPIYGQLADEQKQQQEGQRQQRQKKQSNDFGDLLDEVSMVEMEEEE | soluble
VSRSRKEEERQEQSARLLSKLRRFDDLDRNWPIKILIQGLRFPIRSEQRLTEYFGCSNSYEISLRDIMNFLITDYEKIPLDLYEVCPAYKQKQIGRKTYSAIVNHLSEQGLGSTFRCEWNMRLKKLIRFMEKGWEYIPDSFRQYEYRA | soluble

Source: the DeepSol protein solubility set
